Source: publication PMC4834876 (Journal of molecular biology, 2016)

Molecular target: F-actin (filamentous actin) from rabbit muscle (rabbit, UniProt P68135 1-377)
Assay: co-sedimentation

- Kd: ~7 µM
B1: EB1_(248), activated fragment of EB1 lacking the auto-inhibitory acidic tail (domain or fragment)
chain: MAVNVYSTSVTSDNLSRHDMLAWINESLQLNLTKIEQLCSGAAYCQFMDMLFPGSIALKKVKFQAKLEHEYIQNFKILQAGFKRMGVDKIIPVDKLVKGKFQDNFEFVQWFKKFFDANYDGKDYDPVAARQGQETAVAPSLVAPALNKPKKPLTSSSAAPQRPISTQRTAAAPKAGPGVVRKNPGVGNGDDEAAELMQQVNVLKLTVEDLEKERDFYFGKLRNIELICQENEGENDPVLQRIVDILYA
